B1: Caldanaerobius polysaccharolyticus endo-β-mannanase Man5A truncation mutant Man5A-TM2, SEQ ID NO: 29 (Caldanaerobius polysaccharolyticus) (protein)
chain: AGTSGDGRFHVVGNKIVDPDGKDFIIKGVNIQGYRSWEKRSVLQDVHLIADVWKFNTVRLNCFIGQNNWGEGTGANNDIDAIIKAFTAKKVVVEIDLHDTTGYPPLSNPPPAPGQPSLDQAIAWFKELAAKYKDNPYVWFNTMNEPGSSTAPLDPQWKVANEEIIKAIRSTGADNIIVVDGWSYANEGIEQNTPTVDEKRSAVLTYGQDLLNADSAKNTIFAFHNYNEGDIQKKVEDYIDRANAKGLYVFMEEYGKDYSDAAKEGVKSGLQAVMNKGAGRIYWNWDGYDLYDLTSGTGRGSGWEINKTDGSKPTNLSWVGDKIWDDNHGITPTFDDQNPKVDLALERLIANNNGFKAGDKVQFTTFLRNSGDLPIGKDSKVVVKFYVDGVQLGDPVEISGGIAVGQRIPVTSPELTVSKTDFTVKAVIDSSSTYADGAEDAVIENNWIEAAFNSTAPSSGYELVVTGIKITPDTVKEGDYVQAQVTVANQGPEATPVTNIIGWFYVNGYYYTLDDAAKSCAEQDNVTLKPGESITLSTKVKYRAAAPFNFSFVLENLYADDQNQSNNSITVNVPVK
B2: Caldanaerobius polysaccharolyticus endo-β-mannanase Man5B, wild type, SEQ ID NO: 31 (Caldanaerobius polysaccharolyticus) (protein)
chain: MKKYGFNFQWMYVWEEGREPEPPDKKALDFLAETGFNFVRIPVDYRFWTRNFDYFNPDKKVFEYIDLYLRECSARNIHMCLNLHRAPGYCINRNDIERDNLWLDKRAQDGFVYQWELFAKRYKGVSSKFLSFDLVNEPPNIGQYGLTRENHASLIIRTVEAIRKIDPDREIVIDGLGGGNIAMPELAHLGVVHSGRGYQPMALTHYQASWWDGHKGLPEPYYPDLLWQGKVWNKDTLREYYKPWRDLQQKGVNVHIGEFGCFNKTSNDVAIRWFEDVLSLYKEFEWGYSLWNFKGPFGIVEHGRPGAKYEYYRGFKVDRELLDLLVENRV

How the values were obtained:
Type in all cases: biochemical, Caldanaerobius polysaccharolyticus
[1] = substrate: O=[N+]([O-])c1ccc(O[C@@H]2O[C@H](CO)[C@@H](O)[C@H](O)[C@@H]2O)cc1; experiment: Catalytic efficiency with pNP-linked sugars (Man5A-TM2); conditions: other: Man5A-TM2, pNP substrates, citrate buffer 50 mM, pH 5.5, 65° C., triplicate
Protocol: (§1) The plasmid constructs were then introduced into E. coli BL-21 CodonPlus (DE3) RIL competent cells by heat shock, and grown overnight in lysogeny broth (LB) agar medium supplemented with ampicillin (100 μg/mL) and chloramphenicol (50 μg/mL) at 37° C. After 12 h, single colonies were selected and used to inoculate fresh LB (10 mL) supplemented with the antibiotics above at the same concentrations, followed by culturing with aeration for 8 h at 37° C. The pre-cultures were then inoculated into fresh LB (1 L) supplemented with ampicillin and chloramphenicol and the cultures were incubated at 37° C. with vigorous aeration (225 rpm/min). […] Aliquots of eluted fractions were analyzed by sodium dodecyl sulfate-polyacrylamide gel electrophoresis (SDS-PAGE) and protein bands were visualized by staining with Coomassie brilliant blue G-250. […] The UV absorbances of the protein solutions were recorded at 280 nm using a Nanoprop 1000 from Thermo Scientific (Waltham, Mass.) and the protein concentrations were calculated using the following extinction coefficients: Man5A-TM1, ε280 nm=189 mM^−1 cm^−1; Man5A-TM2, ε280 nm=113 mM^−1 cm^−1; Man5B, ε280 nm=103 mM^−1 cm^−1.
(§2) Hydrolysis of para-nitrophenyl (pNP) linked sugars. […] The extinction coefficient of pNP at pH 5.5 was determined as 1636 M^−1 cm^−1.

[2] = substrate: O=[N+]([O-])c1ccc(O[C@@H]2O[C@H](CO)[C@@H](O[C@@H]3O[C@H](CO)[C@@H](O)[C@H](O)[C@H]3O)[C@H](O)[C@H]2O)cc1; experiment: as above; conditions: other: Man5A-TM2, pNP substrates, citrate buffer 50 mM, pH 5.5, 65° C., triplicate
Protocol: as §1, §2

[3] = substrate: O=[N+]([O-])c1ccc(O[C@@H]2O[C@H](CO)[C@@H](O)[C@H](O)[C@@H]2O)cc1; experiment: Kinetic properties with pNP-linked sugars (Man5B wild type); conditions: other: wild type Man5B 5 nM, substrate 0.06 to 10 mM, 65° C., citrate buffer pH 5.5
Protocol: (§3) The plasmid constructs were then introduced into E. coli BL-21 CodonPlus (DE3) RIL competent cells by heat shock, and grown overnight in lysogeny broth (LB) agar medium supplemented with ampicillin (100 μg/mL) and chloramphenicol (50 μg/mL) at 37° C. After 12 h, single colonies were selected and used to inoculate fresh LB (10 mL) supplemented with the antibiotics above at the same concentrations, followed by culturing with aeration for 8 h at 37° C. The pre-cultures were then inoculated into fresh LB (1 L) supplemented with ampicillin and chloramphenicol and the cultures were incubated at 37° C. with vigorous aeration (225 rpm/min). The cultures were grown to an optical density of 0.3 at 600 nm, and the temperature was shifted to 16° C. and gene expression was induced by the addition of 0.1 mM isopropyl β-D-thiogalactopyranoside (IPTG). After 16 h of growth, the cells were harvested by centrifugation (4000×g, […], 4° C.), the cell pellets were then re-suspended in 30 mL lysis buffer (50 mM Tris-HCl, 300 mM NaCl, pH 7.0), and ruptured by two passages through an EmulsiFlex C-3 cell homogenizer from Avestin (Ottawa, Canada). The cell lysate was then clarified by centrifugation at 20,000×g for 30 min at 4° C. to remove cell debris. The lysate containing recombinant protein was then incubated at 65° C. for 30 min, and centrifuged at 20,000×g for 15 min at 4° C. to remove heat labile E. coli proteins. The recombinant proteins were then purified from the heat treated supernatant using the Talon Metal Affinity Resin according to the supplier's protocol, with the exception that Tris-based binding (50 mM Tris-HCl, 300 mM NaCl, pH 7.5), and elution (50 mM Tris-HCl, 300 mM NaCl, 250 mM Imidazole, pH 7.5) buffers were employed. Aliquots of eluted fractions were analyzed by sodium dodecyl sulfate-polyacrylamide gel electrophoresis (SDS-PAGE) and protein bands were visualized by staining with Coomassie brilliant blue G-250. Elution fractions were pooled and the proteins were then exchanged into protein storage buffer (50 mM Tris-HCl, 150 mM NaCl, pH 7.5) by three successive concentration and dilution cycles with Amicon Ultra-15 centrifugal filter units (Man5A-TM1, Man5A-TM2, 50,000 MWCO; Man5B,10,000 MWCO). The UV absorbances of the protein solutions were recorded at 280 nm using a Nanoprop 1000 from Thermo Scientific (Waltham, Mass.) and the protein concentrations were calculated using the following extinction coefficients: Man5A-TM1, ε280 nm=189 mM^−1 cm^−1; Man5A-TM2, ε280 nm=113 mM^−1 cm^−1; Man5B, ε280 nm=103 mM^−1 cm^−1.
(§4) Determination of kinetic properties for wild type and mutant Man5B with pNP-linked sugars. Kinetic properties of wild type and mutant Man5B were determined for pNP-β-D-mannopyranoside and pNP-β-D-cellobioside. The substrate concentrations ranged from 0.06 to 10 mM and reactions were performed at 65° C. in citrate buffer (50 mM sodium citrate, pH 5.5). The reactions were equilibrated to 65° C. using a thermostated Cary 300 UV-Vis spectrophotometer, and the reactions were initiated by the addition of wild type (5 nM, final concentration) or mutant (2 μM, final concentration) Man5B. The rate of pNP release was determined by continuously monitoring the absorbance at 400 nm. Initial rate data were then plotted against the substrate concentrations, and the values of the Michaelis-Menten constant (KM) and the maximum velocity (Vmax) were estimated from a nonlinear curve fit using GraphPad Prism v5.01 from GraphPad Software (San Diego, Calif.). The kcat was calculated as the quotient of the Vmax and the concentration of enzyme used in the reaction.
(§5) Next, to test whether the mutations introduced in Man5B had any effects on the catalytic activity of this enzyme, the catalytic parameters for the wild type and mutant enzymes were determined using pNP-β-D-cellobioside and pNP-β-D-mannopyranoside as substrates.

[4] = substrate: O=[N+]([O-])c1ccc(O[C@@H]2O[C@H](CO)[C@@H](O[C@@H]3O[C@H](CO)[C@@H](O)[C@H](O)[C@H]3O)[C@H](O)[C@H]2O)cc1; experiment: as above; conditions: other: wild type Man5B 5 nM, substrate 0.06 to 10 mM, 65° C., citrate buffer pH 5.5
Protocol: as §3, §4, §5

Row | Protein | kcat/Km [1] | kcat/Km [2] | Km [3] [mM] | kcat [3] [s⁻¹] | kcat/Km [3] [M⁻¹ s⁻¹] | Km [4] | kcat [4] [s⁻¹] | kcat/Km [4] [M⁻¹ s⁻¹]
1 | B1 | (1.1 ± 0.2) × 10^−2 mM^−1 s^−1 | (2.5 ± 0.3) × 10^−2 mM^−1 s^−1 |  |  |  |  |  | 
2 | B2 |  |  | 26 ± 4 | 42 ± 3 | 1600 ± 100 | (9.7 ± 1) × 10^−2 mM | 2.4 ± 0.1 | 25000 ± 2000
